This is an account of results in the domain aggregation screens of Martell et al. (2025).

A short description of the data set: soluble fraction after stress (log2 fold change); higher = more stays soluble; pooled small domains, quantitative proteomics. The following applies: stress: pH 4. A digest of the protocol:
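Aggregation propensity here comes from the fold change in the soluble amount of each small protein domain after acid stress, measured in pooled custom libraries by high-throughput quantitative proteomics. The acid stress was pH 4. On the log2 scale, higher values mean more of the domain stayed soluble.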
“HMYTDGVPALTDLKKESKPGRRQYVGVEDIPKVLGGLGITILSTSKGLMSGHQAKKKNIGGELIASV”: the “soluble fraction (log2)” value was -0.0153.

As for “HMYTEIDDVKDLLSKIPSVNKLTTADRGMVQAARNAYDALDEDQKLYITIADVEKFNAAVEWMEEH”, the “soluble fraction (log2)” value was -0.523.

In the case of “HMYTVRDGDTVFGILNRFGVSLDELLSLNPELSNGLKAGMVLKIK”, the “soluble fraction (log2)” value is -1.13.

Take “HMYVADVVGMGIKDALYILENQGLRVVFTGKGVVKNQSIAVGEKIIKGEKIVLML”: the “soluble fraction (log2)” value is -0.723.

In the case of “HMYVQDPVDRLVLESALRLLREQEREIIFLHLVAGLKHREIAGLLHLPLSTVLSGYRRALTKMKSYLEE”, the “soluble fraction (log2)” value was 0.0239.

Turning to “HMYVTGETIRHLRTQRRMTQEQLAETLGVTGKAVSKWETGRGFPDMSLLEPLARALRISVPELLSGE”, the “soluble fraction (log2)” value is 0.0292.

“HMYYNQGILKSGASVYGEPGITSSHRLEIPSGSFVDIVQEKDEWVYYEKNHVNHGWVLRENIYIPSL”: the “soluble fraction (log2)” value amounted to 0.23.

As to “HMYYQEDHDIILEETEDVTDPYLITLRGYIFLNNLQWVAARQAFLSADERFRHRHYSALIAPIMQTIDNAA”, the “soluble fraction (log2)” value is -1.49.

As for “HMYYSERILTILEERGISPYRVSKETGISQSVFSNWKRKPTSRITAANLERLADYLGLPVEVLTG”, the “soluble fraction (log2)” value was found to be 0.134.
